For two substances, Kd and stoichiometry N results are on record in PMC8677947.

Assay [1] has as its target GCN4 leucine zipper (Saccharomyces cerevisiae) (UniProt P03069). Particulars: cited from earlier work.
In assay [2] the target is GCN4^WT (leucine zipper dimerization element of GCN4), C-terminal 6x His-tagged (yeast). The assay is described as follows: native gel or EMSA; native (nondenaturing) PAGE beside SDS-PAGE of GCN4^WT and GCN4^3mut.

GCN4 leucine zipper, sequence (P03069 250-277): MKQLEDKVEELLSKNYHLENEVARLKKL
GCN4^WT (leucine zipper dimerization element of GCN4), C-terminal 6x His-tagged (domain or fragment), sequence (P03069 whole entry, the tested form may be a part): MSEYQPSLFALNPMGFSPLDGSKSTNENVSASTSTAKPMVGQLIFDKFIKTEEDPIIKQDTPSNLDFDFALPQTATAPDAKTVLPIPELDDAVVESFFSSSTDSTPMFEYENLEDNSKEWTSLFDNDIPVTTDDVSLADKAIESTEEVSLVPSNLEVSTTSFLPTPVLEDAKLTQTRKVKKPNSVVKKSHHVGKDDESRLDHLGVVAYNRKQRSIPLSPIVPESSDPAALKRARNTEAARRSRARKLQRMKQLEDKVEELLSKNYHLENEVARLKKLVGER

The term Kd denotes a measure of binding affinity in units of concentration. As for “GCN4 leucine zipper (from UniProt P03069)”, the Kd in assay [1] was 180 pM.
A word on the stoichiometry N: it is a count of units in the complex or per binding partner. “GCN4^WT (leucine zipper dimerization element of GCN4), C-terminal 6x His-tagged (domain or fragment)” had a stoichiometry N in assay [2] of 2.
